# According to patent US20250129419A1, “REAGENTS FOR LABELING BIOMOLECULES AND USES THEREOF” (Ultima Genomics, Inc., priority 2022, published 2025):
# Assays:
# [1] = target: bovine serum albumin (BSA) (Bos taurus, UniProt P02769); assay: fluorescence of BSA labeled with different ATTO 532 labeling moieties; conditions: BSA labeled with ATTO 532, FIG. 16
# Source text: The effect of functional separation between an optically detectable moiety (e.g., fluorescent dye) and a substrate was investigated using bovine serum albumin (BSA). BSA was fluorescently labeled with ATTO 532 according to the following schemes: in the absence of a linker providing separation between the BSA and ATTO 532 moieties (“Atto532”), using PEG16 as a linker to provide separation between the BSA and ATTO 532 moieties (“Atto532-PEG16”), using a hyp10 moiety to provide separation between the BSA and ATTO 532 moieties (“Atto532-hyp10”), and using a hyp30 moiety to provide separation between the BSA and ATTO 532 moieties (“Atto532-hyp30”). Labeled BSA was purified from free dye using Millipore centrifugal filters.
# [2] = evaluation of dye-labeled nucleotides including guanine (sequencing assay); conditions: lacks the hyp10 linker
# Procedure: Nucleotides including guanine or analogs thereof may perform more poorly in sequencing applications (e.g., as described herein) in base-calling accuracy. This may be related to photoinduced electron transfer from the nucleobase to a dye linked to the nucleobase, which may quench signal emitted by the dye and thus less dynamic range of signal. Accordingly, various dye-labeled nucleotides including guanine or analogs thereof are prepared and evaluated as provided herein. Examples of such dye-labeled nucleotides include:
# Several of the structures shown above include the hyp10 linker which includes the sequence Gly-Hyp-Hyp-Hyp-Hyp-Hyp-Hyp-Hyp-Hyp-Hyp-Hyp from the N-terminal end. […] The remaining dye-labeled nucleotides are evaluated in a sequencing assay, as described herein. […] Additional structures including different numbers of hydroxyprolines, including hyp20 and hyp30 moieties, may also be incorporated into fluorescent labeling reagents.
# bovine serum albumin (BSA), sequence (P02769 25-607): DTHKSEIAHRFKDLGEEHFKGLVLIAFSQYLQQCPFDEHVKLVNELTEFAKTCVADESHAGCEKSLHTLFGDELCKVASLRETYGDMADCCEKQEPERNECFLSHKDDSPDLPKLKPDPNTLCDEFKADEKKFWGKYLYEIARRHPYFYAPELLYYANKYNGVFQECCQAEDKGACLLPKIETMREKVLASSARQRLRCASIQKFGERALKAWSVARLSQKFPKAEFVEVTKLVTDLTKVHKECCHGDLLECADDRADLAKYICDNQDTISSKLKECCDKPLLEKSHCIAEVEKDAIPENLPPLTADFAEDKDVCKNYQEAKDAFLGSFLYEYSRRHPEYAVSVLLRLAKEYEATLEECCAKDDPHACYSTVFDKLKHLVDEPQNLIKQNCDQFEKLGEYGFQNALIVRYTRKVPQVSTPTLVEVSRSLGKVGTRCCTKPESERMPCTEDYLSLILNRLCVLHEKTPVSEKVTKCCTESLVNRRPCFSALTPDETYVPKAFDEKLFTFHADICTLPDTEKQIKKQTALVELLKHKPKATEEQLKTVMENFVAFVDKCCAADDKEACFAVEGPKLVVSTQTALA
Compound,self-quenching on BSA protein [1],quenching [2]
Atto532-PEG16: BSA labeled with ATTO 532 using PEG16 as a linker [reference compound],did not improve quenching over ATTO 532 alone,–
CCN1CCCc2cc3c(cc21)C(C)(C)C1=CC(=[N+](C)C)C=CC1=C3c1ccccc1C(=O)N(C)CCCC(=O)NC(CS(=O)(=O)[O-])C(=O)NCCSSCCC(=O)NCC#Cc1cn([C@H]2C[C@@H](O)[C@@H](COP(=O)(O)OP(=O)(O)OP(=O)(O)O)O2)c2nc(N)[nH]c(=O)c12 (some centres unmarked) [G4],–,highly quenched
